Reference: IntAct's records for PubMed 16301520

B1: Mitochondrial antiviral-signaling protein (Homo sapiens), Q7Z434 (parent)
chain: MPFAEDKTYKYICRNFSNFCNVDVVEILPYLPCLTARDQDRLRATCTLSGNRDTLWHLFNTLQRRPGWVEYFIAALRGCELVDLADEVASVYQSYQPRTSDRPPDPLEPPSLPAERPGPPTPAAAHSIPYNSCREKEPSYPMPVQETQAPESPGENSEQALQTLSPRAIPRNPDGGPLESSSDLAALSPLTSSGHQEQDTELGSTHTAGATSSLTPSRGPVSPSVSFQPLARSTPRASRLPGPTGSVVSTGTSFSSSSPGLASAGAAEGKQGAESDQAEPIICSSGAEAPANSLPSKVPTTLMPVNTVALKVPANPASVSTVPSKLPTSSKPPGAVPSNALTNPAPSKLPINSTRAGMVPSKVPTSMVLTKVSASTVPTDGSSRNEETPAAPTPAGATGGSSAWLDSSSENRGLGSELSKPGVLASQVDSPFSGCFEDLAISASTSLGMGPCHGPEENEYKSEGTFGIHVAENPSIQLLEGNPGPPADPDGGPRPQADRKFQEREVPCHRPSPGALWLQVAVTGVLVVTLLVVLYRRRLH

Variants of: B1
Settings: with polg_hcv77 polg

Variant	effect of a mutation on the interaction
C508R	decreasing interaction
